Assay results reported in patent US8920805B2, “Inhibition of tumor metastasis by anti-neuropilin 2 antibodies” (Genentech, Inc., priority 2007, dated 2014).

Test system: E 17.5 Hippocampal growth cones
Assay: Hippocampal neuronal growth cone collapse assay (Sema3F)
Type: cell-based
Settings: Anti-Nrp2^B 50 μg/ml; Nrp2 ECD 10 ug/ml
Procedure: FIG. 17. […] (A) Images of E 17.5 Hippocampal growth cones stained with rhodamine conjugated phalloidin. Control growth cones show large actin rich structures at the tip of each axon, which are reduced with Sema3F treatment. […] In contrast, Nrp2 ECD (10 ug/ml) does block this collapse. (B) Quality control for anti-Nrp2 immunohistochemistry. […] This antibody was subsequently used for IHC on fresh frozen tumor sections. (Scale bar main images=**μm and for inset images=**μm.
Then, the ability of Anti-Nrp2^B to modulate semaphorin function was tested. […] Thus, Anti-Nrp2^B acts to block specific aspects of Nrp2 function, inhibiting VEGFC but not VEGF or Sema3F mediated cellular responses.

B1: Nrp2 ECD: Nrp2 extracellular domain protein, positive control for blocking Sema3F (protein, UniProt O60462 21-864, looked up)
extracellular domain: RGQPDPPCGGRLNSKDAGYITSPGYPQDYPSHQNCEWIVYAPEPNQKIVLNFNPHFEIEKHDCKYDFIEIRDGDSESADLLGKHCGNIAPPTIISSGSMLYIKFTSDYARQGAGFSLRYEIFKTGSEDCSKNFTSPNGTIESPGFPEKYPHNLDCTFTILAKPKMEIILQFLIFDLEHDPLQVGEGDCKYDWLDIWDGIPHVGPLIGKYCGTKTPSELRSSTGILSLTFHTDMAVAKDGFSARYYLVHQEPLENFQCNVPLGMESGRIANEQISASSTYSDGRWTPQQSRLHGDDNGWTPNLDSNKEYLQVDLRFLTMLTAIATQGAISRETQNGYYVKSYKLEVSTNGEDWMVYRHGKNHKVFQANNDATEVVLNKLHAPLLTRFVRIRPQTWHSGIALRLELFGCRVTDAPCSNMLGMLSGLIADSQISASSTQEYLWSPSAARLVSSRSGWFPRIPQAQPGEEWLQVDLGTPKTVKGVIIQGARGGDSITAVEARAFVRKFKVSYSLNGKDWEYIQDPRTQQPKLFEGNMHYDTPDIRRFDPIPAQYVRVYPERWSPAGIGMRLEVLGCDWTDSKPTVETLGPTVKSEETTTPYPTEEEATECGENCSFEDDKDLQLPSGFNCNFDFLEEPCGWMYDHAKWLRTTWASSSSPNDRTFPDDRNFLRLQSDSQREGQYARLISPPVHLPRSPVCMEFQYQATGGRGVALQVVREASQESKLLWVIREDQGGEWKHGRIILPSYDMEYQIVFEGVIGKGRSGEIAIDDIRISTDVPLENCMEPISAFAGENFKVDIPEIHEREGYEDEIDDEYEVDWSNSSSATSGSGAPSTDKEKSWLYTLDP
modifications: extracellular domain
semaphorin (Sema3F) induced growth cone collapse: inhibited this collapse completely
